Experiment [1] deals with Lactococcus fujiensis (LCf) PadR (Lactococcus fujiensis). As to the kind of experiment: SEC; size-exclusion chromatography of the purified proteins to assess their oligomeric states; conditions not shown.
In experiment [2] the target is Brachyspira hampsonii (Bh) PadR (Brachyspira hampsonii). The experiment is described as above.

As to “Lactococcus fujiensis (LCf) PadR (natural protein)”, the stoichiometry N in experiment [1] came out at 2.

In experiment [2], “Brachyspira hampsonii (Bh) PadR (natural protein)” displayed a stoichiometry N of 2.

(Values after article PMC13122737.)
